Laboratory results taken from publication PMC4041439 (Nucleic Acids Research, 2014).

Target: T1, Mms4 (S. cerevisiae, UniProt P38257 1-691)
T1 sequence (looked up): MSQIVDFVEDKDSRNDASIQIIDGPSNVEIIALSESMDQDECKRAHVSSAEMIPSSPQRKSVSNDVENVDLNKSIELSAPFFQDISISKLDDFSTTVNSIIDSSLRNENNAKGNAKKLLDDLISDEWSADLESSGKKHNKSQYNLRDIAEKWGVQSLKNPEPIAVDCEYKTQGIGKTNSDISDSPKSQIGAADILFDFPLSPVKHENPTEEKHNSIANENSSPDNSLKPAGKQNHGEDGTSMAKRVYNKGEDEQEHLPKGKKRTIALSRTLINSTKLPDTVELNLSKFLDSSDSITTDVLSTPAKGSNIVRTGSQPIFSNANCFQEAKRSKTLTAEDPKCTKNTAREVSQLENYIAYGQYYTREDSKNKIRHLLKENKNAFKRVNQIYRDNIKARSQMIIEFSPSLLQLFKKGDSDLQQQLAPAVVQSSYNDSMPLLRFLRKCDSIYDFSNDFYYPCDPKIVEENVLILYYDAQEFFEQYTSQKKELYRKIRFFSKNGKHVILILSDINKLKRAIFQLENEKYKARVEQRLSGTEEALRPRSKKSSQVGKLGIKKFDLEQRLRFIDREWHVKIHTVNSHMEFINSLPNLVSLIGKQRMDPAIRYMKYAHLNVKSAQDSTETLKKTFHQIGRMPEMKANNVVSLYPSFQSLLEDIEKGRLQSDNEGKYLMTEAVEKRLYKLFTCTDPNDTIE
Assay: cross-linking

binding result: binds
B1: Mus81 (enzyme, S. cerevisiae, UniProt Q04149 1-632, looked up)
chain: MELSSNLKDLYIEWLQELVDGLTPKQEQLKIAYEKAKRNLQNAEGSFYYPTDLKKVKGIGNTIIKRLDTKLRNYCKIHHISPVEAPSLTQTSSTRPPKRTTTALRSIVNSCENDKNEAPEEKGTKKRKTRKYIPKKRSGGYAILLSLLELNAIPRGVSKEQIIEVAGKYSDHCMTPNFSTKEFYGAWSSIAALKKHSLVLEEGRPKRYSLTEEGVELTKSLKTADGISFPKENEEPNEYSVTRNESSEFTANLTDLRGEYGKEEEPCDINNTSFMLDITFQDLSTPQRLQNNVFKNDRLNSQTNISSHKLEEVSDDQTVPDSALKAKSTIKRRRYNGVSYELWCSGDFEVFPIIDHREIKSQSDREFFSRAFERKGMKSEIRQLALGDIIWVAKNKNTGLQCVLNTIVERKRLDDLALSIRDNRFMEQKNRLEKSGCEHKYYLIEETMSGNIGNMNEALKTALWVILVYYKFSMIRTCNSDETVEKIHALHTVISHHYSQKDLIVIFPSDLKSKDDYKKVLLQFRREFERKGGIECCHNLECFQELMGKGDLKTVGELTIHVLMLVKGISLEKAVAIQEIFPTLNKILMAYKTCSSEEEAKLLMFNVLGDAPGAKKITKSLSEKIYDAFGKL
